Source: publication PMC12360793

What was measured:
[1] = target: biotinylated monomeric PnNL2018B RBD (PnNL2018B (bat MERSr-CoV sampled in Pipistrellus nathusii)); experiment: BLI
[2] = target: biotinylated monomeric MOW15–22 RBD (MOW15–22 (bat MERSr-CoV sampled in Pipistrellus nathusii)); experiment: BLI
[3] = target: dimeric P.dav ACE2 ectodomain (cryo-EM sample with MOW15–22 RBD) (P.dav (a Pteronotus bat)); experiment: cryo-EM structure

dimeric P.nat ACE2 ectodomain (residues 17–729, avi-His8) (domain or fragment)
Kd [1]: 0.897 µM
Kd [2]: 0.0128 µM

monomeric P.dav ACE2 ectodomain (residues 17–613, avi-His8) (from UniProt Q56H28 17-613) (domain or fragment)
Kd [2]: 1.07 µM

monomeric P.nat ACE2 ectodomain (residues 17–614, avi-His8) (domain or fragment)
Kd [2]: 1.45 µM

MOW15–22 RBD (cryo-EM sample with P.dav ACE2) (from UniProt Q56H28 360-611) (domain or fragment)
stoichiometry N (RBD per ACE2 dimer) [3]: < 1

dimeric P.dav ACE2 ectodomain (residues 17–728, avi-His8) (from UniProt Q56H28 17-728) (domain or fragment)
Kd [2]: 0.00638 µM
